Laboratory results as given in the supplement of paper PMC9112550, “Optimization of the antimicrobial peptide Bac7 by deep mutational scanning” (BMC Biology, 2022).

Each sequence was assayed on Escherichia coli TOP10 (assay: shrunken log2 fold change of peptide-encoding DNA abundance (4.5 h post-induction vs induction); higher = less antimicrobial activity (less host growth inhibition)). Conditions: time post-induction: 4.5 h; library: site-saturation at positions 5, 18, 19, 20.
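Note: peptides expressed intracellularly from a pBAD plasmid library in pooled LB shake-flask culture, induced with 0.3% L-arabinose, DNA abundance read by NGS, three biological replicates, DESeq2 with apeglm shrinkage.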

Sequence	shrunken log2 fold change
RRIRTRPPRLPRPRPRPIKIPRP	-0.426
RRIRSRPPRLPRPRPRPFPEPRP	-0.22
RRIRDRPPRLPRPRPRPGDHPRP	0.00849
RRIRCRPPRLPRPRPRPHILPRP	-0.476
RRIRKRPPRLPRPRPRPPEVPRP	0.741
RRIRSRPPRLPRPRPRPFKMPRP	-0.357
RRIRTRPPRLPRPRPRPAGYPRP	0.138
RRIRMRPPRLPRPRPRPERYPRP	0.362
RRIRARPPRLPRPRPRPVPIPRP	0.0735
RRIRERPPRLPRPRPRPICAPRP	0.0742
RRIRRRPPRLPRPRPRPEDPPRP	0.192
RRIRSRPPRLPRPRPRPQRIPRP	-0.322
RRIRNRPPRLPRPRPRPCKRPRP	-0.0122
RRIRSRPPRLPRPRPRPCLWPRP	0.0729
RRIRLRPPRLPRPRPRPGAWPRP	0.0481
RRIRERPPRLPRPRPRPFEQPRP	-0.126
RRIRIRPPRLPRPRPRPISQPRP	-0.961
RRIRDRPPRLPRPRPRPLLFPRP	0.445
RRIRMRPPRLPRPRPRPEVCPRP	0.0476
RRIRGRPPRLPRPRPRPIERPRP	-0.00587
RRIRLRPPRLPRPRPRPFGMPRP	-0.205
RRIRSRPPRLPRPRPRPYQSPRP	0.0187

Sequence	shrunken log2 fold change
RRIRIRPPRLPRPRPRPPPEPRP	0.32
RRIRGRPPRLPRPRPRPGATPRP	1.39
RRIRERPPRLPRPRPRPSTWPRP	-0.651
RRIRIRPPRLPRPRPRPHVLPRP	-0.198
RRIRARPPRLPRPRPRPMNQPRP	-0.135
RRIRVRPPRLPRPRPRPPAEPRP	0.253
RRIRNRPPRLPRPRPRPSDQPRP	0.0574
RRIRRRPPRLPRPRPRPVDNPRP	0.0838
RRIRRRPPRLPRPRPRPNHMPRP	-0.299
RRIRMRPPRLPRPRPRPRWQPRP	0.146
RRIRVRPPRLPRPRPRPADFPRP	0.0696
RRIRKRPPRLPRPRPRPMWTPRP	0.151
RRIRCRPPRLPRPRPRPCVKPRP	-0.439
RRIRCRPPRLPRPRPRPDEGPRP	-0.00232
RRIRCRPPRLPRPRPRPKVPPRP	-0.0562
RRIRIRPPRLPRPRPRPLAAPRP	0.255
RRIRQRPPRLPRPRPRPSGCPRP	0.0869
RRIRQRPPRLPRPRPRPHPKPRP	-0.0646
RRIRIRPPRLPRPRPRPNVCPRP	-0.204
RRIRRRPPRLPRPRPRPIIMPRP	-0.444
RRIRMRPPRLPRPRPRPWNYPRP	-0.203
RRIRHRPPRLPRPRPRPFDYPRP	-0.0282

Sequence	shrunken log2 fold change
RRIRERPPRLPRPRPRPWSGPRP	-0.48
RRIRPRPPRLPRPRPRPQTNPRP	-0.0828
RRIRTRPPRLPRPRPRPRRWPRP	-0.0464
RRIRIRPPRLPRPRPRPFHAPRP	-0.388
RRIRWRPPRLPRPRPRPRKCPRP	0.4
RRIRTRPPRLPRPRPRPYNPPRP	-0.224
RRIRKRPPRLPRPRPRPPTHPRP	0.42
RRIRERPPRLPRPRPRPLMTPRP	-0.295
RRIRERPPRLPRPRPRPPARPRP	0.451
RRIRCRPPRLPRPRPRPTVPPRP	0.247
RRIRRRPPRLPRPRPRPFLPPRP	0.111
RRIRKRPPRLPRPRPRPYYEPRP	-0.493
RRIRIRPPRLPRPRPRPKRYPRP	-0.118
RRIRNRPPRLPRPRPRPNLHPRP	-0.728
RRIRYRPPRLPRPRPRPLALPRP	-0.816
RRIRRRPPRLPRPRPRPKQEPRP	0.0674
RRIRQRPPRLPRPRPRPQRFPRP	-0.0204
RRIRPRPPRLPRPRPRPICEPRP	0.227
RRIRCRPPRLPRPRPRPYWMPRP	-1.07
RRIRIRPPRLPRPRPRPVRVPRP	0.458
RRIRHRPPRLPRPRPRPQRMPRP	-0.16
RRIRDRPPRLPRPRPRPTVQPRP	0.158

Sequence	shrunken log2 fold change
RRIRSRPPRLPRPRPRPRRIPRP	0.135
RRIRCRPPRLPRPRPRPCGWPRP	0.456
RRIRQRPPRLPRPRPRPSNTPRP	-0.824
RRIRRRPPRLPRPRPRPYWVPRP	0.0443
RRIRYRPPRLPRPRPRPSSWPRP	-0.284
RRIRVRPPRLPRPRPRPWYCPRP	-0.462
RRIRKRPPRLPRPRPRPVSFPRP	-0.0599
RRIRLRPPRLPRPRPRPPCMPRP	-0.0839
RRIRNRPPRLPRPRPRPGKQPRP	-0.406
RRIRQRPPRLPRPRPRPEWTPRP	-0.00618
RRIRRRPPRLPRPRPRPMIMPRP	-0.323
RRIRHRPPRLPRPRPRPNQNPRP	-0.285
RRIRSRPPRLPRPRPRPLEQPRP	0.0284
RRIRCRPPRLPRPRPRPSTMPRP	-0.509
RRIRPRPPRLPRPRPRPVHWPRP	0.00332
RRIRGRPPRLPRPRPRPMIFPRP	0.283
RRIRMRPPRLPRPRPRPINSPRP	-0.142
RRIRPRPPRLPRPRPRPIMQPRP	-0.391
RRIRSRPPRLPRPRPRPPQLPRP	0.209
RRIRNRPPRLPRPRPRPMHMPRP	-0.00926
RRIRPRPPRLPRPRPRPISLPRP	-0.427
RRIRERPPRLPRPRPRPTAFPRP	-0.16

Sequence	shrunken log2 fold change
RRIRQRPPRLPRPRPRPDWLPRP	-0.102
RRIRTRPPRLPRPRPRPYMNPRP	-0.895
RRIRYRPPRLPRPRPRPGVIPRP	-0.297
RRIRQRPPRLPRPRPRPCWHPRP	-0.129
RRIRPRPPRLPRPRPRPCMTPRP	-0.106
RRIRPRPPRLPRPRPRPGLEPRP	0.195
RRIRSRPPRLPRPRPRPQWIPRP	-0.425
RRIRPRPPRLPRPRPRPLGGPRP	1.53
RRIRNRPPRLPRPRPRPFLNPRP	-0.392
RRIRDRPPRLPRPRPRPKWGPRP	0.105
RRIRARPPRLPRPRPRPPYKPRP	0.0849
RRIRARPPRLPRPRPRPANMPRP	-0.0999
RRIRKRPPRLPRPRPRPENYPRP	-0.0275
RRIRVRPPRLPRPRPRPDNDPRP	-0.232
RRIRDRPPRLPRPRPRPVNDPRP	-0.163
RRIRQRPPRLPRPRPRPLNSPRP	-0.0233
RRIRCRPPRLPRPRPRPDIIPRP	-0.132
RRIRPRPPRLPRPRPRPSGAPRP	0.345
RRIRSRPPRLPRPRPRPPWTPRP	0.319
RRIRKRPPRLPRPRPRPTAIPRP	0.444
RRIRSRPPRLPRPRPRPLQYPRP	-0.221
